Experimental data reported in patent US20230048633A1 (SHATTUCK LABS, published 2023).

T1: recombinant mouse 4-1 BB Ligand protein (R&D Systems, Cat. No. 1246-4L) (mouse, UniProt P41274 104-309)
T1 construct: Bought reagent; also called commercially available recombinant mouse 4-1 BB Ligand protein
T1 sequence (looked up): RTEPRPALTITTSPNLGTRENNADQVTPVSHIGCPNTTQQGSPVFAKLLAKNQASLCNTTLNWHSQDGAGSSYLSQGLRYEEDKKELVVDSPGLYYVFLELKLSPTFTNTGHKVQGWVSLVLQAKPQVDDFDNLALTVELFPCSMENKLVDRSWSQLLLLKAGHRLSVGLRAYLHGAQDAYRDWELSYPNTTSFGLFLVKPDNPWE

T2: m4-1BB expressed on CHO-K1 cells (CHO-K1/m4-1BB+ (C20)) (mouse, UniProt P20334 24-256)
T2 construct: whole, on cells; also called CHO-K1/4-1BB cells; 4-1BB expressed by the CHO-K1/4-1BB cells
T2 sequence (looked up): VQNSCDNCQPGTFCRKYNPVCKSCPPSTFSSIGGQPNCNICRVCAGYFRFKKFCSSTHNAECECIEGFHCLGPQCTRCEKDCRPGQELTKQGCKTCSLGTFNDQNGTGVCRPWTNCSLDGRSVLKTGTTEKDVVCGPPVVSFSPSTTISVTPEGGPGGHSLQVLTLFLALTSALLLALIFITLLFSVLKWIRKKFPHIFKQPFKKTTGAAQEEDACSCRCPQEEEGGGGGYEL

B1: recombinant 4-1BB-His protein (receptor, mouse, UniProt P20334 24-187, looked up)
chain: VQNSCDNCQPGTFCRKYNPVCKSCPPSTFSSIGGQPNCNICRVCAGYFRFKKFCSSTHNAECECIEGFHCLGPQCTRCEKDCRPGQELTKQGCKTCSLGTFNDQNGTGVCRPWTNCSLDGRSVLKTGTTEKDVVCGPPVVSFSPSTTISVTPEGGPGGHSLQVL
notes: also called m4-1BB-His; CD137; not shown: His tag
B2: mTGFBR2-Fc-4-1BBL chimeric protein (Fc fusion, mouse, UniProt Q62312 24-166, looked up)
chain: IPPHVPKSVNSDVMASDNGGAVKLPQLCKFCDVRLSTCDNQKSCMSNCSITAICEKPHEVCVAVWRKNDKNITLETVCHDPKLTYHGFTLEDAASPKCVMKEKKRAGETFFMCACNMEECNDYIIFSEEYTTSSPDLLLVIIQVPRDCGCKPCICTVPEVSSVFIFPPKPKDVLTITLTPKVTCVVVDISKDDPEVQFSWFVDDVEVHTAQTQPREEQFNSTFRSVSELPIMHQDWLNGKEFKCRVNSAAFPAPIEKTISKTKGRPKAPQVYTIPPPKEQMAKDKVSLTCMITDFFPEDITVEWQWNGQPAENYKNTQPIMNTNGSYFVYSKLNVQKSNWEAGNTFTCSVLHEGLHNHHTEKSLSHSPGKRTEPRPALTITTSPNLGTRENNADQVTPVSHIGCPNTTQQGSPVFAKLLAKNQASLCNTTLNWHSQDGAGSSYLSQGLRYEEDKKELVVDSPGLYYVFLELKLSPTFTNTGHKVQGWVSLVLQAKPQVDDFDNLALTVELFPCSMENKLVDRSWSQLLLLKAGHRLSVGLRAYLHGAQDAYRDWELSYPNTTSFGLFLVKPDNPWE
notes: extracellular domain;domain: hinge-CH2-CH3 Fc domain; also called murine TGFBR2-Fc-4-1BBL; TGFBR2-Fc-CD137L
B3: hTGFBR2-Fc-NKG2A chimeric protein (Fc fusion)
chain: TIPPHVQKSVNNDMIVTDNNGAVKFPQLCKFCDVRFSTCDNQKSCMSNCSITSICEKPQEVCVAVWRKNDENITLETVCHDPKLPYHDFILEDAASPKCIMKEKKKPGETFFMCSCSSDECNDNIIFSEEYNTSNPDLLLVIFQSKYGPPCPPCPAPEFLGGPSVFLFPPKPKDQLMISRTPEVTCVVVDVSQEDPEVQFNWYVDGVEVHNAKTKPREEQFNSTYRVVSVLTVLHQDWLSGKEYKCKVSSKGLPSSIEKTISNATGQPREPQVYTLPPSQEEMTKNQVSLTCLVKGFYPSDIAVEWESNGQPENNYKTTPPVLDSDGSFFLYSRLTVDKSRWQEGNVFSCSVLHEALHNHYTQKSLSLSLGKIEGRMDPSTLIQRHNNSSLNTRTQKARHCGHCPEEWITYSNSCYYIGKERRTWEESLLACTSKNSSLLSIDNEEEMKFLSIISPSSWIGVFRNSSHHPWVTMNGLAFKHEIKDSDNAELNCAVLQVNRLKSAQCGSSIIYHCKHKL
notes: also called human TGFBR2-Fc-NKG2A

Assays:
[1] = target: T1, recombinant mouse 4-1 BB Ligand protein …; test: Octet (4-1BB Arc Octet): 41BB His (5ug/ml, Acro 41B-M52H7) on the tip, All Molecules at 30ug/ml; rm41BBL R&D 1246-4L
Procedure: To study the binding kinetics of type II transmembrane protein domain and TGFBR2 parts of the illustrative TGFBR2-based chimeric proteins, binding assays were performed using the Octet system (ForteBio). Binding of the TGFBR2-Fc-4-1BBL chimeric protein to recombinant 4-1BB was analyzed. Briefly, recombinant 4-1BB-His protein was immobilized and detected using the mTGFBR2-Fc-4-1BBL chimeric protein, a positive control protein comprising Fc-4-1BBL (Control-Fc-4-1BBL) or commercially available recombinant mouse 4-1 BB Ligand protein (R&D Systems, Cat. No. 1246-4L). The binding response of the mTGFBR2-Fc-4-1BBL chimeric protein to 4-1BB-His protein was measured and plotted in real time on a sensorgram trace.

[2] = target: B1; test: ELISA: plate coated with 41BB-His (5ug/ml, Acro 41B-M52H7), titrated protein captured, detected with α-mFc-HRP (1:10k, Jax 115-036-003)
Procedure: The TGFBR2-based chimeric proteins harbor type II transmembrane protein domains at or near the C-terminus. To understand whether the type II transmembrane protein domains from the native chimeric proteins can bind their natural ligands/receptors, ELISA-based assays were performed. TGFBR2-Fc-4-1BBL comprises 4-1BB ligand (4-1BBL or TNFSF9) as the type II membrane protein located at or near the C-terminus. 4-1BB (CD137, TNFRSF9) is the natural receptor/ligand of 4-1BBL. To understand whether the type II transmembrane protein domain part of the native TGFBR2-Fc-4-1BBL chimeric protein can bind 4-1BB, ELISA-based assays were performed. Recombinant 4-1BB-His protein was coated on plates. Increasing amounts of the TGFBR2-Fc-4-1BBL chimeric protein, or a positive control protein comprising Fc-4-1BBL (Control-Fc-4-1BBL) were added for capture by the plate-bound 4-1BB-His protein. Binding was detected using an anti mFc-HRP antibody. […] Therefore, the type II transmembrane protein domain of the TGFBR2-Fc-4-1BBL and Control-Fc-4-1BBL chimeric proteins bind to the natural ligand/receptor of the 4-1BBL.

[3] = target: T2, m4-1BB expressed on CHO-K1 cells …; test: flow cytometry on CHO-K1/m4-1BB+ (C20) cells, detected with Anti-mFc-APC (Jax 1:50)
Procedure: To understand whether the 4-1BBL part of the mTGFBR2-Fc-4-1BBL chimeric protein can specifically bind cells expressing 4-1BB, cells expressing 4-1 BB were generated. Specifically, the CHO-K1 cells expressing 4-1 BB were generated using standard techniques. Clone 20, a positive clone, called CHO-K1/m4-1BB+ (C20), was used for further studies. To determine whether the mTGFBR2-Fc-4-1BBL chimeric protein can specifically bind the CHO-K1/4-1BB cells, a flow-cytometry-based assay was carried out. CHO-K1/m4-1BB+(C20) and WT CHO-K1 cells were stained with increasing concentrations of the TGFBR2-Fc-4-1BBL chimeric protein, or positive control protein comprising Fc-4-1BBL (Control-Fc-4-1BBL) and analyzed by flow cytometry. Unstained CHO-K1/m4-1BB+ (C20) and WT CHO-K1 cells or CHO-K1/m4-1BB+ (C20) and WT CHO-K1 cells stained without the TGFBR2-Fc-4-1BBL chimeric protein, or positive control protein comprising Fc-4-1BBL (Control-Fc-4-1BBL) were used as control.

anti-human IgG antibody = target: T3, anti-human IgG antibody; test: ELISA: plate coated with Anti-Human IgG (H+L) Jax# 109-005-088, titrated protein captured, detected with HRP Goat anti-human FCgamma Jax# 109-035-008
T3 construct: also called anti-human Fc antibody
Procedure: To understand whether the human Fc linkers from the native chimeric proteins can be accessed by anti-human antibodies, ELISA-based assays were performed. For these assays, an anti-human IgG antibody was coated on plates and increasing amounts of the hCD86-Fc-NKG2A, hTGFBR2-Fc-NKG2A, and mCD80-Fc-NKG2a chimeric proteins, and a human IgG antibody were added to the plates for capture by the plate-bound anti-human antibody. The human IgG antibody and the hCD86-Fc-NKG2A chimeric protein were used as a positive control. The mCD80-Fc-NKG2a chimeric protein was included as a negative control as containing a non-human Fc domain. The protein bound to the anti-human IgG antibody was detected using an anti-human Fcgamma HRP.

Binder: B1
binding result [1]: binds

Binder: B2
EC50 (read off the curve) [2]: ~0.07 µg/mL
EC50 (read off the curve) [3]: ~0.08 µg/mL

Binder: B3
EC50 (read off the curve) (anti-human IgG antibody): ~10 µg/mL
